# Assay results reported in PMC11539623 (Biochimica et biophysica acta. Gene regulatory mechanisms, 2023).
# Target: T1, His-tagged full length Taf14 (S. cerevisiae, UniProt P35189 1-244, labeled with His-Tag Labeling Kit RED-tris-NTA (2nd Generation))
# T1 sequence (looked up): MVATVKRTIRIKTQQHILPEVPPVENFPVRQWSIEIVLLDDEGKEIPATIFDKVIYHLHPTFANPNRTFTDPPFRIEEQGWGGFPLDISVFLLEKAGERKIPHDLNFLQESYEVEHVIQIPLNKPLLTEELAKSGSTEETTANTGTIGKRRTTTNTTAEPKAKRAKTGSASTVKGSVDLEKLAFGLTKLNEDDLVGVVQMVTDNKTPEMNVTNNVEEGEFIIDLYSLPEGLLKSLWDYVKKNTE
# Assay: MST
binder,measurement,value
"GHSLLLSIKLPG (peptide, UniProt P18480 782-793, looked up) [Snf5 ET domain binding motif peptide (aa 782-793)]",fold weaker binding than the isolated Taf14ET,7 fold
